# Test results from paper PMC8883494, “Conformational trapping of an ABC transporter in polymer lipid nanoparticles” (Biochemical Journal, 2021).
# Molecular target: the molecule itself
# Assay: SAXS; Sav1866-SMALPs from the 12 ml SEC fraction, undiluted sample, 20 mM Tris pH 8, 150 mM NaCl; DAMMIF models with P1 and P2 symmetry fitted with the crystal structure 2HYD
protein,measurement,value
"Staphylococcus aureus ABC transporter Sav1866 in styrene-maleic acid lipid particles (natural protein, Sav1866, ABC transporter (half-transporter, homodimer) of Staphylococcus aureus; expressed from pet-19b:sav1866; M from chemical composition 64 863 Da; the undigested band at 65 kDa is called full-length Sav1866; Embedded in a SMALP nanoparticle with E. coli lipids; The DNA construct was a gift; its exact limits and linker are not described; also called Sav1866-SMALPs; Sav1866-10His; source: E. …) MIKRYLQFVKPYKYRIFATIIVGIIKFGIPMLIPLLIKYAIDGVINNHALTTDEKVHHLTIAIGIALFIFVIVRPPIEFIRQYLAQWTSNKILYDIRKKLYNHLQALSARFYANNQVGQVISRVINDVEQTKDFILTGLMNIWLDCITIIIALSIMFFLDVKLTLAALFIFPFYILTVYVFFGRLRKLTRERSQALAEVQGFLHERVQGISVVKSFAIEDNEAKNFDKKNTNFLTRALKHTRWNAYSFAAINTVTDIGPIIVIGVGAYLAISGSITVGTLAAFVGYLELLFGPLRRLVASFTTLTQSFASMDRVFQLIDEDYDIKNGVGAQPIEIKQGRIDIDHVSFQYNDNEAPILKDINLSIEKGETVAFVGMSGGGKSTLINLIPRFYDVTSGQILIDGHNIKDFLTGSLRNQIGLVQQDNILFSDTVKENILLGRPTATDEEVVEAAKMANAHDFIMNLPQGYDTEVGERGVKLSGGQKQRLSIARIFLNNPPILILDEATSALDLESESIIQEALDVLSKDRTTLIVAHRLSTITHADKIVVIENGHIVETGTHRELIAKQGAYEHLYSIQNL",stoichiometry N,2
